The text below walks through data of patent US20260242485A1.

Assay [1] concerns the target human CD32B expressed on CHO-K1 cells (human) (UniProt P31994). Put plainly: flow cytometry, CHO-K1-hCD32B cells, geometric mean. In general terms: A flow cytometer gives signals particle by particle.
Assay [2] has as its target human CD16B-NA1 expressed on CHO-K1 cells (human) (UniProt O75015). Put plainly: flow cytometry, CHO-K1-hCD16B-NA1 cells, geometric mean.

human CD16B-NA1 expressed on CHO-K1 cells (human), sequence (O75015 other isoform, or with tags, fused parts or gaps): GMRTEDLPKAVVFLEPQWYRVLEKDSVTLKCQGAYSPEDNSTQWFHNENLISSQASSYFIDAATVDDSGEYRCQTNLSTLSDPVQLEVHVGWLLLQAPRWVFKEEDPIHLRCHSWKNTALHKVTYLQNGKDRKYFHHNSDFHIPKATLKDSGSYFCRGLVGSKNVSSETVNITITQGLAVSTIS
human CD32B expressed on CHO-K1 cells (human), sequence (P31994 43-310): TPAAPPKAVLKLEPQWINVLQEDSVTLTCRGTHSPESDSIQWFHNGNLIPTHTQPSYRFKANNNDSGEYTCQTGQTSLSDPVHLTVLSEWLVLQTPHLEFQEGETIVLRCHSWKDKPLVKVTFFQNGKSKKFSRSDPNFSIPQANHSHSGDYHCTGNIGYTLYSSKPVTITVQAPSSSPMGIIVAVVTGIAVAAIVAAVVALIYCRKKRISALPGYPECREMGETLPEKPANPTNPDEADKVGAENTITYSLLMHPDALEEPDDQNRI

With Positive control (6G11) (antibody), in assay [1], the EC50 (read off the curve) came out at 0.1 nM. 3G8-mIgG2aLALAPG (antibody) had an EC50 (read off the curve) in assay [2] of 0.1 to 1 nM.

In the case of Positive control (3G8) (antibody), the EC50 (read off the curve) in assay [2] was found to be 0.1 nM.

By EC50 (read off the curve) is commonly meant the concentration that produces a half-maximal response. Higher therefore signals a less potent agent.
